Test results taken from patent US20220411523A1.

What was measured:
[1] = biological target: Human 4-1BB + Mouse 4-1BB domain1,2A,2B(aa24-86) (human; mouse); test: FACS, transiently transfected Expi293 cells (cell A)
[2] = biological target: Human 4-1BB + Mouse 4-1BB domain1,4B,NF(aa24-46,aa139-186) (human; mouse); test: FACS, transiently transfected Expi293 cells (cell F)
Chain of Human 4-1BB + Mouse 4-1BB domain1,4B,NF(aa24-46,aa139-186) (human; mouse) (chain, as listed by the source): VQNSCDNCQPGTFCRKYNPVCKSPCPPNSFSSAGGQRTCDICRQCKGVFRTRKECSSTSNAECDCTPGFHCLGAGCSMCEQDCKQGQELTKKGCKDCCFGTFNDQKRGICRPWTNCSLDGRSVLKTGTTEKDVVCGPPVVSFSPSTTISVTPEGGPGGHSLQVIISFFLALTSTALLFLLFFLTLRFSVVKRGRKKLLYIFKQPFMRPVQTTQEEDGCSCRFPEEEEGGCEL

Chain of Human 4-1BB + Mouse 4-1BB domain1,2A,2B(aa24-86) (human; mouse) (chain, as listed by the source): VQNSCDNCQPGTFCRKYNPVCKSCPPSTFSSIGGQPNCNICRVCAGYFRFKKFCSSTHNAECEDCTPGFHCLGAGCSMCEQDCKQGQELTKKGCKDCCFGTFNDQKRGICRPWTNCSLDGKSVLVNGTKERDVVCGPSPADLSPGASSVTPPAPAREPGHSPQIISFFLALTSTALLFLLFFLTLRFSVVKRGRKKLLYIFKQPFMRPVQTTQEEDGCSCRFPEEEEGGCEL

B1: Hanke10F4 (antibody, human IgG4 S228P, kappa, V domains shown)
VH: QVQLQESGPGLVKPSETLSITCTVSGSSLTSYGVHWVRQPPGKGLEGLGVIWPGGSTNYNSALMSRLTISKDNSKSQVSLKMSSLTAADTAMYYCARVTGTWYFDVWGQGTTVTVSS
VL: DIQMTQSPSSLSASLGDRVTISCSASQGISNYLNWYQQKPDGTVKLLIYYTSTLHSGVPSRFSGSGSGTDFTLTISSLQPEDVATYYCQQYSKLPWTFGGGTKLEIKR
- Mean fluorescence intensity [1]: 948
- Mean fluorescence intensity [2]: 1870
